Fold decrease in binding compared to m36 data for 1 molecule are collected here from patent US20130108636A1.

The target in the experiment is gp120s. The experiment can be described thus: binding assay, method not stated.

B1: m36d1 (VHH)
chain: QVQLVQSGGGLVQPGGSLRLSCAASAFDFSDYEMSWVRQAPGKGLEWIGEINDSGNTIYNPSLKSRVTISRDNSKNTLYLQMNTLRAEDTAIYYCAIYGGNSGGEYWGQGTLVTVSSGGGGSGGGGSGGGGSQVQLVQSGGGLVQPGGSLRLSCAASAFDFSDYEMSWVRQAPGKGLEWIGEINDSGNTIYNPSLKSRVTISRDNSKNTLYLQMNTLRAEDTAIYYCAIYGGNSGGEYWGQGTLVTVSS
As to B1, the fold decrease in binding compared to m36 worked out at 16 fold.
